Assay [1] deals with recombinant human OX40 (Acro Biosystems, cat. no. OXO-H5224) (human) (UniProt P43489). The assay can be described thus: BLI cross-block; competitor (immobilized 1st Ab): IgG1-CD134-ABBV368.
Assay [2] shares this target. The assay can be described thus: BLI cross-block; competitor (immobilized 1st Ab): IgG1-CD134-A4453.
Assay [3] deals with cynomolgus monkey OX40, cell surface-expressed (cynomolgus monkey). As to the kind of experiment: flow cytometry, HEK293F cells with cynomolgus monkey OX40.
Chain of cynomolgus monkey OX40, cell surface-expressed (cynomolgus monkey) (P43489 other isoform, or with tags, fused parts or gaps limits assumed): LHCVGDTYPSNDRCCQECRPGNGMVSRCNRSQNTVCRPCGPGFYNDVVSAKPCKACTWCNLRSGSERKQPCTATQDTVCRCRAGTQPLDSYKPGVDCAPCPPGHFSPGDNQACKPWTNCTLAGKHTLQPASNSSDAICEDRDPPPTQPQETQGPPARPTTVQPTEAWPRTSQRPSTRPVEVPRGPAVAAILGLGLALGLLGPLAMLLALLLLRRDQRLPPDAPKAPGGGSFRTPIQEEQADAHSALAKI
For assay [4], the target named is recombinant human OX40 (Acro Biosystems, cat. no. OXO-H5224) (human) (UniProt P43489). The assay can be described thus: BLI cross-block; competitor (immobilized 1st Ab): IgG1-CD134-RG7888.
Assay [5] has the same target. The assay can be described thus: BLI cross-block; competitor (immobilized 1st Ab): IgG1-CD134-Hu106.
Assay [6] has the same target. The assay can be described thus: BLI cross-block; competitor (immobilized 1st Ab): IgG1-CD134-IBI101.
The target is the same in assay [7]. The assay can be described thus: BLI cross-block; competitor (immobilized 1st Ab): IgG1-CD134-INCAGN1949.
For assay [8] the target is unchanged. The assay can be described thus: BLI cross-block; competitor (immobilized 1st Ab): IgG1-CD134-012.
Assay [9] has the same target. The assay can be described thus: BLI cross-block; competitor (immobilized 1st Ab): IgG1-CD134-GBR830.
Assay [10] shares this target. The assay can be described thus: BLI cross-block; competitor (immobilized 1st Ab): IgG1-CD134-MEDI0562.
Assay [11] has the same target. The assay can be described thus: BLI, Ab on AHC sensor, OX40 analyte. (In general: Biolayer interferometry detects binding as a change in optical thickness at a sensor tip.)
Assay [12] has the same target. As to the kind of experiment: BLI cross-block; competitor (immobilized 1st Ab): IgG1-CD134-h3C8.
For assay [13], the target named is human OX40 with mouse CRD4 (human with mouse CRD4) (UniProt P43489). The assay can be described thus: flow cytometry, ExpiCHO-S cells with human OX40 carrying mouse CRD4. A general note: Flow cytometry measures light scatter and fluorescence of single cells or particles in a stream.
Chain of human OX40 with mouse CRD4 (human with mouse CRD4) (P43489 other isoform, or with tags, fused parts or gaps limits assumed): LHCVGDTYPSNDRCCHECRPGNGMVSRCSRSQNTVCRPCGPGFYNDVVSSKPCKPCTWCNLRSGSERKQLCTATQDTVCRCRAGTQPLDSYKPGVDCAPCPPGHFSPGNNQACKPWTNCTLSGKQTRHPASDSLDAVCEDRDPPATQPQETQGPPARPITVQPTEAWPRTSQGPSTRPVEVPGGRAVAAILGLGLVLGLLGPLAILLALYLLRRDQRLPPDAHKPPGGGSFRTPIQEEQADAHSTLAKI
The target of assay [14] is human OX40, cell surface-expressed (human) (UniProt P43489). As to the kind of experiment: flow cytometry, HEK293F cells with human OX40.
Chain of human OX40, cell surface-expressed (human) (P43489 29-277): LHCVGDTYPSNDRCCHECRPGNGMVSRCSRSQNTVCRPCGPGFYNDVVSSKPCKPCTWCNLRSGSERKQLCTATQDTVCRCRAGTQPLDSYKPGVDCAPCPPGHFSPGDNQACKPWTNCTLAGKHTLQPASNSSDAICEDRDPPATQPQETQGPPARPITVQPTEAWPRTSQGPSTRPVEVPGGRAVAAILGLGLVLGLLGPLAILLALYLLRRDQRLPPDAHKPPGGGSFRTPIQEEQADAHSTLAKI
The target of assay [15] is human OX40 with mouse CRD3 (human with mouse CRD3) (UniProt P43489). As to the kind of experiment: flow cytometry, ExpiCHO-S cells with human OX40 carrying mouse CRD3.
Chain of human OX40 with mouse CRD3 (human with mouse CRD3) (P43489 other isoform, or with tags, fused parts or gaps limits assumed): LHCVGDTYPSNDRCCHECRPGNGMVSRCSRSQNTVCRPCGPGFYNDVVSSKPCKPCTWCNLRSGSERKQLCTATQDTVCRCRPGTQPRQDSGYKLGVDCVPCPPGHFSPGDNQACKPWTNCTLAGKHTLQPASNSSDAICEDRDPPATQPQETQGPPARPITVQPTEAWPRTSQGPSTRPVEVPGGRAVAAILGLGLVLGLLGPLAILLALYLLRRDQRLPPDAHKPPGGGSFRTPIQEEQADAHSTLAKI
Assay [16] concerns the target recombinant human OX40 (Acro Biosystems, cat. no. OXO-H5224) (human) (UniProt P43489). The assay can be described thus: BLI cross-block; competitor (immobilized 1st Ab): IgG1-CD134-49B4-RRE.
Assay [17] addresses recombinant cynomolgus monkey OX40 (Acro Biosystems, cat. no. OXO-C5220) (cynomolgus monkey). The assay can be described thus: BLI, Ab on AHC sensor, OX40 analyte; * binding observed, less reliable fit.
Assay [18] addresses recombinant human OX40 (Acro Biosystems, cat. no. OXO-H5224) (human) (UniProt P43489). As to the kind of experiment: BLI cross-block; competitor (immobilized 1st Ab): IgG1-CD134-SF2.
For assay [19] the target is unchanged. As to the kind of experiment: BLI cross-block; competitor (immobilized 1st Ab): IgG1-CD134-003.
Assay [20] shares this target. As to the kind of experiment: BLI cross-block; competitor (immobilized 1st Ab): IgG1-CD134-007.
The target is the same in assay [21]. The assay can be described thus: BLI cross-block; competitor (immobilized 1st Ab): IgG1-CD134-11D4.
Assay [22] shares this target. The assay can be described thus: BLI cross-block; competitor (immobilized 1st Ab): IgG1-CD134-003-HC6LC2-RR.
The target in assay [23] is human OX40 with mouse CRD1 (human with mouse CRD1) (UniProt P43489). As to the kind of experiment: flow cytometry, ExpiCHO-S cells with human OX40 carrying mouse CRD1.
Chain of human OX40 with mouse CRD1 (human with mouse CRD1) (P43489 other isoform, or with tags, fused parts or gaps limits assumed): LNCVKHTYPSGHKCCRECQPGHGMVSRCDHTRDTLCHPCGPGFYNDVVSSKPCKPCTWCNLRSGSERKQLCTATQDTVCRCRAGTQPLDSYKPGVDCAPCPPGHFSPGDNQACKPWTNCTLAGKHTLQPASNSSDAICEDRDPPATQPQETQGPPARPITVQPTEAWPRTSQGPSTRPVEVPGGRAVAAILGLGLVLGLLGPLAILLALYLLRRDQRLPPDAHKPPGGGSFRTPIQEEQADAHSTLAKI
In assay [24] the target is human OX40, cell surface-expressed (human) (UniProt P43489). As to the kind of experiment: flow cytometry, ExpiCHO-S cells with human OX40.
Assay [25] has the same target. The assay can be described thus: flow cytometry, activated CD4+ T cells, donor 3.
Assay [26] has the same target. As to the kind of experiment: flow cytometry, activated CD8+ T cells, mean of 3 donors.
The target is the same in assay [27]. The assay can be described thus: flow cytometry, activated CD4+ T cells, donor 1.
Assay [28] shares this target. The assay can be described thus: flow cytometry, activated CD4+ T cells, mean of 3 donors.
The target is the same in assay [29]. As to the kind of experiment: flow cytometry, activated CD8+ T cells, donor 3.
Assay [30] shares this target. The assay can be described thus: flow cytometry, activated CD8+ T cells, donor 2.
Assay [31] has the same target. The assay can be described thus: flow cytometry, activated CD4+ T cells, donor 2.
For assay [32] the target is unchanged. The assay can be described thus: flow cytometry, activated CD8+ T cells, donor 1.
The target in assay [33] is human FcγRIa, cell surface-expressed (human) (UniProt P12314). As to the kind of experiment: flow cytometry, ExpiCHO-S cells transfected with human FcγRIa.
Chain of human FcγRIa, cell surface-expressed (human) (P12314 16-374): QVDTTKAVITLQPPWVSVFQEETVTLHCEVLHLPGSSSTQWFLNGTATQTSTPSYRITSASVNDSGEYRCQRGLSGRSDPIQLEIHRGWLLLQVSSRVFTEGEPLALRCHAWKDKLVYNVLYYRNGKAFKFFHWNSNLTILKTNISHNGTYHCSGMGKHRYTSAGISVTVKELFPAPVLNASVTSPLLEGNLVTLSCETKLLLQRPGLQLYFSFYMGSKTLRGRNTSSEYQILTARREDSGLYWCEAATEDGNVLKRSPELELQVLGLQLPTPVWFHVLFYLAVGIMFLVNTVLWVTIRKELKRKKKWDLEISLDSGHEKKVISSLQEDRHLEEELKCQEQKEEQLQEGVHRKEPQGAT
The target in assay [34] is His-tagged human recombinant FcγRIa (human) (UniProt P12314). As to the kind of experiment: SPR, His-tagged FcγRIa captured on an anti-His chip, antibody injected. (Surface plasmon resonance follows binding to a sensor surface in real time, without labels.)
Chain of His-tagged human recombinant FcγRIa (human) (P12314 16-288 limits assumed): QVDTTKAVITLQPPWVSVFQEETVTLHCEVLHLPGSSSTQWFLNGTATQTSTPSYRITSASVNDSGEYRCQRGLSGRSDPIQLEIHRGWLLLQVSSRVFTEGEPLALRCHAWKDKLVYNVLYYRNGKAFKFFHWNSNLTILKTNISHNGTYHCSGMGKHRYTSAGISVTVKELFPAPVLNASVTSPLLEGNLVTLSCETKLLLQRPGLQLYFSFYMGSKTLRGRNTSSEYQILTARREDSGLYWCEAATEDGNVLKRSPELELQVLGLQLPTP

The values below come from patent US20240376221A1.

For orientation: EC50 (read off the curve) means the concentration giving half of the maximal effect. Usually Kd stands for the constant that tells how readily two partners part at equilibrium. The koff is a measure of how fast the partners let go of each other. As usually defined, the kon is the second-order rate constant of association. Broadly, the EC50 is the concentration that produces a half-maximal response.

Chain of recombinant cynomolgus monkey OX40 (Acro Biosystems, cat. no. OXO-C5220) (cynomolgus monkey) (P43489 other isoform, or with tags, fused parts or gaps limits assumed): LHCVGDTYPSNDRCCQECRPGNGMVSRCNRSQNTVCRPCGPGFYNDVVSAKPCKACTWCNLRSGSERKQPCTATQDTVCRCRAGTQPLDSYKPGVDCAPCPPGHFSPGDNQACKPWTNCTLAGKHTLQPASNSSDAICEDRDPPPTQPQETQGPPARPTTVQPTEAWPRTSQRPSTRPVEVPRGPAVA
Chain of recombinant human OX40 (Acro Biosystems, cat. no. OXO-H5224) (human) (P43489 29-216 limits assumed): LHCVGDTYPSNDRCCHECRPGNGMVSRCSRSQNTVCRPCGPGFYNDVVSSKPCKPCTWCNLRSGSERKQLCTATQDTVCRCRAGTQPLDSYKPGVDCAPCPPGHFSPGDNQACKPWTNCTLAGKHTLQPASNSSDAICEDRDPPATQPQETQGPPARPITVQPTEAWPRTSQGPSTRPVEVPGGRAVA
Chain of IgG1-CD134-IBI101 (antibody) (VH): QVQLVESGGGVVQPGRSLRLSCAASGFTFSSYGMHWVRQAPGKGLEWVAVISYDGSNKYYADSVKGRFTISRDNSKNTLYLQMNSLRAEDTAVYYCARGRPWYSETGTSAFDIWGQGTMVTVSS
Chain of IgG1-CD134-IBI101 (antibody) (VL): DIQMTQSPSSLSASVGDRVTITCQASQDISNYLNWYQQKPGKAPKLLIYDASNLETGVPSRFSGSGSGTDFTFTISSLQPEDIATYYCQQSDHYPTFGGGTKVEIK

Consider IgG1-CD134-Hu106 (antibody), for which the corrected association response was -0.01 nm in [1]; 0.29 nm in assay [2]; 0.02 nm in [4]; 0.05 nm in assay [5]; 0.01 nm in assay [6]; 0 nm in assay [7]. In addition, the corrected association response in assay [8] is 0.8 nm; in [9], 0.01 nm; in [10], 0.31 nm; in assay [12] it was 0.01 nm; in assay [16] it was -0.01 nm; in assay [18] it was 0.03 nm. Further, the corrected association response in [19] amounted to 1.06 nm; in [20] it was 0.05 nm; in [21], 0.13 nm; in [22], 1.39 nm. Besides, the concentration for a half-maximal effect (EC50 (read off the curve)) in assay [3] amounted to 0.06 µg/mL; in assay [13], 0.06 µg/mL; in [14] it was 0.08 µg/mL; in [15], 0.06 µg/mL; in assay [23], 0.06 µg/mL; in [24] it was 0.05 µg/mL. Besides, the figures for the Kd in assay [11] and in assay [17] were 9.3 nM and 240 nM, respectively. Moreover, the koff worked out at 0.0024 s⁻¹ in assay [11] and 0.029 s⁻¹ in assay [17]. In addition, the kon worked out at 260000 M⁻¹ s⁻¹ in assay [11] and 120000 M⁻¹ s⁻¹ in [17].

In the case of IgG1-CD134-IBI101 (antibody), the EC50 in assay [25] came out at 0.111 µg/mL; in [26], 0.727 µg/mL; in assay [27], 0.101 µg/mL; in [28], 0.104 µg/mL; in assay [29], 0.192 µg/mL; in assay [30], 1.86 µg/mL. In addition, the EC50 worked out at 0.1 µg/mL in [31] and 0.128 µg/mL in assay [32]. For the same substance, the corrected association response in [1] is -0.02 nm; in assay [2], 0.24 nm; in assay [4], 0.31 nm; in assay [5], -0.02 nm; in [6], 0.01 nm; in [7] it was 0.02 nm. Besides, the corrected association response was 0.82 nm in assay [8]; 0.01 nm in assay [9]; 0.26 nm in assay [10]; -0.03 nm in assay [12]; 0 nm in assay [16]; 0.07 nm in assay [18]. For the same substance, the corrected association response is 0.74 nm in [19], 0.02 nm in [20], 0.15 nm in [21] and 1.23 nm in [22]. Further, the concentration giving a half-maximal response (EC50 (read off the curve)) in [3] stood at 0.08 µg/mL; in assay [14], 0.09 µg/mL; in assay [15] it was 0.06 µg/mL; in assay [23] it was 0.08 µg/mL. In addition, the Kd in [11] was 53 nM; in assay [17], 400 nM.

Turning to IgG1-CD134-INCAGN1949 (antibody), the corrected association response is -0.03 nm in assay [1]; 0.25 nm in [2]; 0.01 nm in assay [4]; -0.01 nm in assay [5]; 0.01 nm in [6]; 0 nm in [7]. For the same substance, the corrected association response in assay [8] is 0.73 nm; in assay [9] it was 0.01 nm; in assay [10] it was 0.01 nm; in assay [12], -0.02 nm; in [16], 0 nm; in assay [18] it was 0.02 nm. The corrected association response in assay [19] came to 1.39 nm; in assay [20] it was 0.55 nm; in [21], 0.11 nm; in assay [22], 1.74 nm. The concentration for a half-maximal effect (EC50 (read off the curve)) was 0.1 µg/mL in assay [3]; 0.08 µg/mL in assay [13]; 0.06 µg/mL in [14]; 0.08 µg/mL in assay [23]; 0.07 µg/mL in [24]. Further, the Kd was 160 nM in [11] and 230 nM in [17].

As for “IgG1-CD134-RG7888-K322A-E345R (antibody)”, the EC50 (read off the curve) came out at 0.6 µg/mL in [33] and 30 nM in [34].
